T1: IFT57 (C. reinhardtii (endogenous in flagella), UniProt Q2XQY7 1-469)
T1 sequence (looked up): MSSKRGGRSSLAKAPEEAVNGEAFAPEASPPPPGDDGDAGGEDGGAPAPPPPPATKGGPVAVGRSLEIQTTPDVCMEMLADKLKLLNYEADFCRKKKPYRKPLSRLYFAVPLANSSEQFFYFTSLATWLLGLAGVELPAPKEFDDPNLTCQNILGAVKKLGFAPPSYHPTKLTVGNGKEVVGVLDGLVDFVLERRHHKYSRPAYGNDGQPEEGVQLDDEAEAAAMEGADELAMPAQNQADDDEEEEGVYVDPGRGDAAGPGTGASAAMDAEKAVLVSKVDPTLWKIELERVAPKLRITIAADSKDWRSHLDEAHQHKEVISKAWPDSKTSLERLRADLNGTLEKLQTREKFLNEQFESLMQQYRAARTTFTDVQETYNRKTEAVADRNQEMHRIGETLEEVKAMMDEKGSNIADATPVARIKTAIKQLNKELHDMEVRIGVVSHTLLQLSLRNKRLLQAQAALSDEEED

T2: IFT72 (C. reinhardtii (endogenous in flagella), UniProt Q6RCE1 1-641)
T2 sequence (looked up): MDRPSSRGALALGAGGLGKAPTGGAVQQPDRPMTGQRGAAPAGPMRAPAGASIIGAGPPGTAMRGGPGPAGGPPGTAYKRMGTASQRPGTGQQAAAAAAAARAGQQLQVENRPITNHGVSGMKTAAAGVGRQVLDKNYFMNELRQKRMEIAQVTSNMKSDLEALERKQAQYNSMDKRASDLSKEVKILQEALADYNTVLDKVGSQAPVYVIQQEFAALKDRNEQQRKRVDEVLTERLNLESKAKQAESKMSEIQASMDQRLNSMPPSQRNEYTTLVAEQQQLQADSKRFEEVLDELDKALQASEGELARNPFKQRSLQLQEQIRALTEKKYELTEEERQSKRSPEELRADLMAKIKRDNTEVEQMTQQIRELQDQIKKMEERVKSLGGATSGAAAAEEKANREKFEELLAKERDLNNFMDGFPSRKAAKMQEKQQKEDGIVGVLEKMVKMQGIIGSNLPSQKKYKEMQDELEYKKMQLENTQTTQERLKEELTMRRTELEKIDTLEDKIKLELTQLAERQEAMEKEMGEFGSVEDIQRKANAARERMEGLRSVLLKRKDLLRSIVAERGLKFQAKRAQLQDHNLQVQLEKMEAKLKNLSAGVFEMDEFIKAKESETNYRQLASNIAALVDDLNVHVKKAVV


Columns and labels:
[1] = target: Strep-II-Tag IFT46 (C. reinhardtii) (UniProt A2T2X4); test: pull-down
[2] = target: T1, IFT57; test: co-sedimentation
[3] = target: T2, IFT72; test: co-sedimentation

Strep-II-Tag IFT46 (C. reinhardtii), sequence (A2T2X4 whole entry): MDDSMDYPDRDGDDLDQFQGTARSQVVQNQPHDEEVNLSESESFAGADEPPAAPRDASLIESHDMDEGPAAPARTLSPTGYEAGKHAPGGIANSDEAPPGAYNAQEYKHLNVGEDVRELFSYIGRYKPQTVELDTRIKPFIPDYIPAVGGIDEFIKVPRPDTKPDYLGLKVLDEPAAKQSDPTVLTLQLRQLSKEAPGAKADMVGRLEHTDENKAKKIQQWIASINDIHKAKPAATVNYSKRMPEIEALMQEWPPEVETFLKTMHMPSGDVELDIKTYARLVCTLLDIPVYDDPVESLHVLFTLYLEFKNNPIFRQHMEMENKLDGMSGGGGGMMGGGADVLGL

Row | Molecule | stoichiometry N [1] | stoichiometry N [2] | stoichiometry N [3]
1 | MBP-IFT70/CrDYF-1 (natural protein) | 1 |  | 
2 | IFT70/CrDYF-1 (natural protein, C. reinhardtii (endogenous in flagella), UniProt A8ITN7 1-647, looked up) MAFFQQPARPIAEGQYTQTIYTLIKEQKFAEAIQHLQYQLQNVPESRAALSLLGYCYYYTGQYDMASQMYEQLVTLYPSNEDYKLYYAQSLYKGGMYPEASKAVVKVEGHQKAVTTLLVACSYEQDDLTGCRRQLDKCAPEDPDTMVNTGCIMFKEGKFEAARQKFNDAVQALGYQPELLYNIALCYYKTKQFGPALKHLAEIIEKAVREHPELSVGSNTDGMEVRSVGNSQTLKETALIEAFNLKAAIEYTMKNVEAAKEALTDMPPRAEEELDPVTLHNSALINMDSDPTGGFKKLNFLLQSPPFPPETFANLLLLYCKPSHGFYDLAADVLAENPQYAGKLLSPDLYDYLQAAIGRYKSPEEAFRRFDELATRHVEQLRRLTKQIQDARIARDNDAIKRAINEYDEALEAYIPGLMAMASIYWDMELYSNVEKIFRQSAEFCSEHEVWKLNVAHTFFMQDNHYKEAIRYYEPVVKKNADNLLGVTAIVLANLCVSYIMTSQNEEAEELMRKVEKEEERSSMQDPDKPCFHLCIINLVIGTLYCAKGNYEFGVSRIIKSLEPYDKKLETDTWYYAKRCFLALIENLAKHMIVLKDSSFTEIMAFLNEAEKHGKDIRVVFNEGKHQSRTIASEARMLKKMFLKLRD |  | ~1 | ~1
